The text below walks through data of patent US20040197809A1.

Several values for one entry are separate records, joined by “and”; a condition that tells them apart may be missing. Identical values can stand only once.

Assay [1] deals with HIV-1 strain HTLV-IIIB (virus) (HIV-1 strain HTLV-IIIB). Kind of assay: cell-based or functional assay.
The target in assay [2] is gp120, the major envelope glycoprotein of HIV-I (HIV-1). Kind of assay: saturation binding of 125I-gp120 in solution, immunoprecipitation with OKT4, Scatchard analysis.
In assay [3] the target is Fcγ receptor (determined with U937 cells) (Homo sapiens (Human)) (UniProt P12314). Kind of assay: binding to Fcγ receptor on U937 cells, method of Anderson et al., J. Immunol. 125:2735-2741 (1980).
UniProt P12314, sequence (P12314 16-374 limits assumed, form in doubt): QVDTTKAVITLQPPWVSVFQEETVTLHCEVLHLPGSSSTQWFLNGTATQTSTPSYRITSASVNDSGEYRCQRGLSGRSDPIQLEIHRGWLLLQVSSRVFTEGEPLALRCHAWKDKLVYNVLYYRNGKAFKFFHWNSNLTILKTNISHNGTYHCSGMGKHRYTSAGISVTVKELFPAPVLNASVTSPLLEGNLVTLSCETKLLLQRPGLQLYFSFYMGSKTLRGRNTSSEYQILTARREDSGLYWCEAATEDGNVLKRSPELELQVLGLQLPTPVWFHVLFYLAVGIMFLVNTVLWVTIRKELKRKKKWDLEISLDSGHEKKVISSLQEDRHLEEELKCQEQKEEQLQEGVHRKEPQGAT
The target in assay [4] is gp120, the major envelope glycoprotein of HIV-I (HIV-1). Kind of assay: gp120 binding by the method of Smith et al., Science 238:1704-07 (1987).

Broadly, the Kd is the free concentration of one partner at which half of the binding sites on the other are occupied at equilibrium, for simple one-to-one binding. “CD4T (CD4 fused after residue 368 of mature CD4 to 9 residues coded by pBR322 sequence) (from UniProt P01730 27-393) (receptor)”: in assay [1], the Indirect immunofluorescence (% positive cells), inhibitor supernatant 1:4 (% positive cells) is 18 and 16.1; the Indirect immunofluorescence (% positive cells), inhibitor supernatant undil. (% positive cells) is 0.4 and 0.8; the Reverse transcriptase (cpm/ml × 10^5), inhibitor supernatant 1:4 was 372000 cpm/ml and 594000 cpm/ml; the Reverse transcriptase (cpm/ml × 10^5), inhibitor supernatant undil. was 11000 cpm/ml and 15000 cpm/ml. In assay [2], this substance yielded a Kd of 0.83 nM.

As for “CD42γ1 immunoadheson (CD4 to glutamine residue 180 fused to the constant region of human immunoglobulin γ1) (Fc fusion)”, the figures for the Kd in assay [3] and in assay [4] were 3.01 nM and 1.4 nM, respectively.

As to “CD44γ1 immunoadheson (CD4 to serine residue 366 fused to the constant region of human immunoglobulin γ1) (Fc fusion)”, the Kd in assay [3] worked out at 2.83 nM; in assay [4], 1.2 nM.

In turn, bulk human IgG1 (antibody) showed a Kd in assay [3] of 3.52 nM.

For the substance “gDCD4T (signal peptide and first 27 residues of mature HSV type I gD glycoprotein fused to mature CD4T) (receptor)”, in assay [1], the Indirect immunofluorescence (% positive cells), inhibitor supernatant 1:4 (% positive cells) is 26.8 and 36.1; the Reverse transcriptase (cpm/ml × 10^5), inhibitor supernatant 1:4 is 992000 cpm/ml and 1.13e+06 cpm/ml; the Reverse transcriptase (cpm/ml × 10^5), inhibitor supernatant undil. was 14000 cpm/ml and 23000 cpm/ml. This substance also returned a Kd in assay [2] of 0.72 nM.
